Laboratory results reported in PMC8586334, “Distinct RPA domains promote recruitment and the helicase-nuclease activities of Dna2” (Nature Communications, 2021).

Molecular target: Rfa1-AB-Y193D (S. cerevisiae)
Assay: cell-based or functional assay

- unwinding of 2.2-kbp-long dsDNA by Dna2-E675A, stimulation by the Rfa1-AB variant, against wild type Rfa1-AB: ~2.5 fold less efficient
B1: S. cerevisiae Dna2-E675A (nuclease-dead) (enzyme, UniProt P38859 1-1522, looked up)
chain: MPGTPQKNKRSASISVSPAKKTEEKEIIQNDSKAILSKQTKRKKKYAFAPINNLNGKNTKVSNASVLKSIAVSQVRNTSRTKDINKAVSKSVKQLPNSQVKPKREMSNLSRHHDFTQDEDGPMEEVIWKYSPLQRDMSDKTTSAAEYSDDYEDVQNPSSTPIVPNRLKTVLSFTNIQVPNADVNQLIQENGNEQVRPKPAEISTRESLRNIDDILDDIEGDLTIKPTITKFSDLPSSPIKAPNVEKKAEVNAEEVDKMDSTGDSNDGDDSLIDILTQKYVEKRKSESQITIQGNTNQKSGAQESCGKNDNTKSRGEIEDHENVDNQAKTGNAFYENEEDSNCQRIKKNEKIEYNSSDEFSDDSLIELLNETQTQVEPNTIEQDLDKVEKMVSDDLRIATDSTLSAYALRAKSGAPRDGVVRLVIVSLRSVELPKIGTQKILECIDGKGEQSSVVVRHPWVYLEFEVGDVIHIIEGKNIENKRLLSDDKNPKTQLANDNLLVLNPDVLFSATSVGSSVGCLRRSILQMQFQDPRGEPSLVMTLGNIVHELLQDSIKYKLSHNKISMEIIIQKLDSLLETYSFSIIICNEEIQYVKELVMKEHAENILYFVNKFVSKSNYGCYTSISGTRRTQPISISNVIDIEENIWSPIYGLKGFLDATVEANVENNKKHIVPLAVKTGKSRSVSYEVQGLIYTLLLNDRYEIPIEFFLLYFTRDKNMTKFPSVLHSIKHILMSRNRMSMNFKHQLQEVFGQAQSRFELPPLLRDSSCDSCFIKESCMVLNKLLEDGTPEESGLVEGEFEILTNHLSQNLANYKEFFTKYNDLITKEESSITCVNKELFLLDGSTRESRSGRCLSGLVVSEVVEHEKTEGAYIYCFSRRRNDNNSQSMLSSQIAANDFVIISDEEGHFCLCQGRVQFINPAKIGISVKRKLLNNRLLDKEKGVTTIQSVVESELEQSSLIATQNLVTYRIDKNDIQQSLSLARFNLLSLFLPAVSPGVDIVDERSKLCRKTKRSDGGNEILRSLLVDNRAPKFRDANDDPVIPYKLSKDTTLNLNQKEAIDKVMRAEDYALILGMPGTGKTTVIAEIIKILVSEGKRVLLTSYTHSAVDNILIKLRNTNISIMRLGMKHKVHPDTQKYVPNYASVKSYNDYLSKINSTSVVATTCLGINDILFTLNEKDFDYVILDEASQISMPVALGPLRYGNRFIMVGDHYQLPPLVKNDAARLGGLEESLFKTFCEKHPESVAELTLQYRMCGDIVTLSNFLIYDNKLKCGNNEVFAQSLELPMPEALSRYRNESANSKQWLEDILEPTRKVVFLNYDNCPDIIEQSEKDNITNHGEAELTLQCVEGMLLSGVPCEDIGVMTLYRAQLRLLKKIFNKNVYDGLEILTADQFQGRDKKCIIISMVRRNSQLNGGALLKELRRVNVAMTRAKSKLIIIGSKSTIGSVPEIKSFVNLLEERNWVYTMCKDALYKYKFPDRSNAIDEARKGCGKRTGAKPITSKSKFVSDKPIIKEILQEYES
